How the values were obtained:
[1] = target: FadA on wild-type Fusobacterium nucleatum 12230 (Fusobacterium nucleatum); assay: cell-based or functional assay
E-cadherin (human) = E-cadherin (human) (UniProt P12830); assay: cell-based or functional assay
Chain of UniProt P12830 (P12830 155-882): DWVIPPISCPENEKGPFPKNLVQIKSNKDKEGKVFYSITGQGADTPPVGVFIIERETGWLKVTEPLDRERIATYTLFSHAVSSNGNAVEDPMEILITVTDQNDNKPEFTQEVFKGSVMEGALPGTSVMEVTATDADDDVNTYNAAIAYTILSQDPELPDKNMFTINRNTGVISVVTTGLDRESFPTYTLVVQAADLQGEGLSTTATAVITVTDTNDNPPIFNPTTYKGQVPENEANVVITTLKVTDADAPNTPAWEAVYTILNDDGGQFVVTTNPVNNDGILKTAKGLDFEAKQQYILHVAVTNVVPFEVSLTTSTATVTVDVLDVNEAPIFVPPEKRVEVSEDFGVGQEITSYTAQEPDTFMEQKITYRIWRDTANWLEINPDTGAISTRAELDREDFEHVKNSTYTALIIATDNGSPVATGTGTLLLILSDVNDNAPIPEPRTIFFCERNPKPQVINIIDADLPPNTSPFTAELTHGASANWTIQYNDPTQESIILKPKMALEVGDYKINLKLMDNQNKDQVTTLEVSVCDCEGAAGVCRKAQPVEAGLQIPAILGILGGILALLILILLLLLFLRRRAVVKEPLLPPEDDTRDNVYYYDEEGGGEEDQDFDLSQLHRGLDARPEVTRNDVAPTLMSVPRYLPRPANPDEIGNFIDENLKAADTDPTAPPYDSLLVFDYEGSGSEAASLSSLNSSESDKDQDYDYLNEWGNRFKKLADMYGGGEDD

GST-EC5 fusion protein (from UniProt P12830 594-697)
inhibition of Fn attachment and invasion of HCT116 [1]: 0.1 µM

FadAc
HCT116 cell growth (cell proliferation assay) (E-cadherin (human)): 1 mg/mL | HCT116 xenograft tumor growth in nude mice (E-cadherin (human)): 20%

FadA on wild-type Fusobacterium nucleatum 12230
attachment level of Fn to HCT116 (percent bacteria recovered relative to inoculum), FIG. 3C without inhibition (E-cadherin (human)): 4.4% | attachment level of Fn to HCT116 without inhibition, FIG. 4B (E-cadherin (human)): 6.3% | attachment level of Fn to HCT116 without inhibition, FIG. 4C (E-cadherin (human)): 5.9% | invasion level of Fn into HCT116 (percent bacteria recovered relative to inoculum), FIG. 3C without inhibition (E-cadherin (human)): 1.3% | invasion level of Fn into HCT116 without inhibition, FIG. 4B (E-cadherin (human)): 1.6% | invasion level of Fn into HCT116 without inhibition, FIG. 4C (E-cadherin (human)): 1.4%
